The labels stand for the following.
B1: Molybdopterin synthase sulfur carrier subunit (Homo sapiens), O96033 (parent)
chain: MVPLCQVEVLYFAKSAEITGVRSETISVPQEIKALQLWKEIETRHPGLADVRNQIIFAVRQEYVELGDQLLVLQPGDEIAVIPPISGG
partner: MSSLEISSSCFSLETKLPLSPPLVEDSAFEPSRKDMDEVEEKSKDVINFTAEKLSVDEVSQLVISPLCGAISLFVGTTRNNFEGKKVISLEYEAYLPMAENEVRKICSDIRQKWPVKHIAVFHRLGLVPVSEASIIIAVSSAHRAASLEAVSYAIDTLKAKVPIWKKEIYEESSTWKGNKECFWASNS

The variants in the experiment derive from B1. The following applies: with moc2b_human MOCS2, O96007.
Regarding V7F, the “effect of a mutation on the interaction” value is “disrupting interaction”.

For the origin of these results see IntAct's records for PubMed 12732628.
